Data reported in patent US6319890A, “Inhibition of binding of complement Factor H” (priority 1996, dated 2001).

What was measured:
[1] = biological target: T1, binding of CFH to the HIV envelope peptides #SA2 (gp120), #18 and #12 (gp41) (Human immunodeficiency virus type 1 group M subtype B, UniProt P03377); conditions: competitor added simultaneously with CFH; ELISA, solid-phase peptides #SA2, #18, #12
T1 construct: His Glu Asp Ile Ile Ser Leu Trp Asp Gln Ser Leu Lys Pro Cys, Env; 105-119; Ile Asn Asn Thr Tyr THr Ser, Env; 621-645; Leu Asp Lys Trp Ala Ser, Env; 650-673; made in house; host or cells: Env peptides: chemical synthesis; CFH: purified from normal human plasma (or fresh plasma used as the CFH source)

[2] = biological target: T1, binding of CFH to the HIV envelope peptides #SA2 (gp120), #18 and #12 (gp41); conditions: previous work, Pinter et al., AIDS Research & Human Retroviruses 11:577; cited from earlier work
[3] = biological target: T1, binding of CFH to the HIV envelope peptides #SA2 (gp120), #18 and #12 (gp41); conditions: target peptides preincubated with competitor, washed, before CFH
Experimental: Synthetic peptides and recombinant proteins were dissolved in Carbonate-bicarbonate buffer, 50 mM, pH 9.2 at 50 μg/ml (micrograms per milliliter) and 10 μg/ml, respectively, distributed in 100 μl aliquots into flat-bottomed 96-well ELISA plates (Greiner, Germany) and left at 37° C. for 3 hours. The plates were then washed three times in phosphate-buffered saline (PBS) and the wells were overcoated with a 3% (w/v) solution of bovine serum albumin (BSA) in PBS. The CFH source (either from fresh plasma or from plasma subjected to subsequent purification steps), was diluted to the appropriate concentration (1 mg/ml) in PBS-BT (=PBS containing 1% BSA and 1% Tween 20), pH 7.0 and exposed to the solid phase for one hour at 37° C. After washing in PBS+1% Tween 20 (=PBS-T), bound CFH was detected by the use of specific, biotin-labelled MAb 5H5, Pinter et al., AIDS Research & Human Retroviruses 11: 971, and peroxidase-labelled streptavidin (Sigma, Italy). The reaction was developed with o-phenylene-diamine/H2 O2 for fifteen minutes and then stopped by the addition of 4N H2 SO4. Absorbance was detected at […] with a MT450 microplate reader (BioRad).
Along with the above-described assay, a preincubation assay was also conducted with peptides. […] The solid phases were washed in PBS-T and CFH was detected with the biotin-labelled MAb 5H5 as previously described.

[4] = biological target: T2, binding of peptide A to HIV-derived target peptides #SA2, #12, #18 (Human immunodeficiency virus type 1 group M subtype B, UniProt P03377); test: Competition of the binding of biotin-labelled peptide A to HIV-derived peptides
T2 construct: His Glu Asp Ile Ile Ser Leu Trp Asp Gln Ser Leu Lys Pro Cys, Env; 105-119; Ile Asn Asn Thr Tyr THr Ser, Env; 621-645; Leu Asp Lys Trp Ala Ser, Env; 650-673; made in house; host or cells: chemical synthesis (synthetic peptides)
Text: This interaction was competed by peptide A itself, by the envelope peptides #SA2 Sequence I.D. #20, #12 Sequence I.D. #22 and #18 Sequence I.D. #21 but not by peptide #53 Sequence I.D. […]. Therefore, the three HIV-derived peptides seem to share functional homology with respect to the interaction with CFH since they all bind to the same region on SEQ. ID NO: 1.

CFH = CFH (Homo sapiens, UniProt P08603); conditions: described in earlier publications of Pinter et al.; cited from earlier work
[5] = biological target: T3, gp41-derived peptide #18 (Env. 621-645) (Human Immunodeficiency Virus); test: competition ELISA against CFH binding to the immobilised envelope peptide
T3 peptide: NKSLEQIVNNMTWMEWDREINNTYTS

[6] = biological target: T4, gp41-derived peptide #12 (Env. 650-673) (Human Immunodeficiency Virus); test: as above
T4 peptide: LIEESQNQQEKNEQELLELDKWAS

[7] = biological target: T5, gp120-derived peptide #SA2 (Env. 105-119) (Human Immunodeficiency Virus); test: as above
T5 peptide: HEDIISLWDQSLKPC

[8] = biological target: T3, gp41-derived peptide #18 (Env. 621-645); test: competition ELISA against CFH; inhibition due to interaction of peptide A with the solid phase (preincubation gave the same effect)
[9] = biological target: T4, gp41-derived peptide #12 (Env. 650-673); test: as above
[10] = biological target: T5, gp120-derived peptide #SA2 (Env. …); test: as above

T1 sequence (P03377 621-645, other chains not shown): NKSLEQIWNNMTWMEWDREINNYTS
CFH, sequence (P08603 19-1231): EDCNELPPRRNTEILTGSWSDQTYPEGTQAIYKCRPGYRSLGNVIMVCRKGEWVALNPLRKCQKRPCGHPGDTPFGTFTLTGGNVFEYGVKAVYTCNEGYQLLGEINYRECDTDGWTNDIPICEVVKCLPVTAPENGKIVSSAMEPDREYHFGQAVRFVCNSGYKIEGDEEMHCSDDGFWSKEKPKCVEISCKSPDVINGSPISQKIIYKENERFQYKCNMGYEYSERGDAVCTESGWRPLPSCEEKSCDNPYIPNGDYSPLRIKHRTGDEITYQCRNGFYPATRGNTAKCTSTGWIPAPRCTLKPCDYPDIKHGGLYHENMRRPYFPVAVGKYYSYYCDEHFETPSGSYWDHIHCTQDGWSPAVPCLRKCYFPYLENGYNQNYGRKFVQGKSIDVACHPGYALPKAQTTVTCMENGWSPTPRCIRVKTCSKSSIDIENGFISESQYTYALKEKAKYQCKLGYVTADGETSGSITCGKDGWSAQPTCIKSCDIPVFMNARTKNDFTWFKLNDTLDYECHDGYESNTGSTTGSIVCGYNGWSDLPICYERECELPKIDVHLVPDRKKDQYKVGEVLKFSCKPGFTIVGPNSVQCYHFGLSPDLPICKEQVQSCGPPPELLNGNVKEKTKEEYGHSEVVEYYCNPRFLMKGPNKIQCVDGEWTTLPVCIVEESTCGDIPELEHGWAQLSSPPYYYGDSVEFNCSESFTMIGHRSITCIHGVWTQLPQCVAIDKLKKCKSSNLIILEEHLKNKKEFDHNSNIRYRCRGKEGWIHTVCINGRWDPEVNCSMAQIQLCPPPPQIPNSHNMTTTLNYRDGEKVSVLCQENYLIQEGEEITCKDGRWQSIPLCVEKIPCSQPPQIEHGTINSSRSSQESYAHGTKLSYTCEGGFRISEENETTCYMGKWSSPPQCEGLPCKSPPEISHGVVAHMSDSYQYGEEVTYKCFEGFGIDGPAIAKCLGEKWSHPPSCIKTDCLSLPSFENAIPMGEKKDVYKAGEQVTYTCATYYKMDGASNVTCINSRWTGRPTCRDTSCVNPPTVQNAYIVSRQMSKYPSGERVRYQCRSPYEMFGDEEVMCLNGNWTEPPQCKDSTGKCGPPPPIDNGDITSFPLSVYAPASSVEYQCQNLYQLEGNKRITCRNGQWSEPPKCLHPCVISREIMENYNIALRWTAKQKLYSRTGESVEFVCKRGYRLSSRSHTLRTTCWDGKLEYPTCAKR

In the case of Heparin, the “competition with the binding of CFH to the HIV envelope peptides” value [1] is listed as “competed”, the “inhibition of the binding of CFH to HIV and to the target peptides” value [2] is listed as “inhibited” and the “competition with the binding of CFH to the HIV envelope peptides after preincubation” value [3] is listed as “inactive”.

In the case of “Asn Lys Ser Leu Glu Gln Ile Val Asn Asn Met Thr Trp Met Glu Trp Asp Arg Glu Ile Asn Asn Thr Tyr THr Ser (NKSLEQIVNNMTWMEWDREINNTYTS) [#18, gp41-derived HIV envelope peptide, Env; 621-645]”, the “competition of the binding of biotin-labelled peptide A to HIV-derived peptides” value [4] is given as “competed” and the “CFH binding to the HIV envelope peptide” value (CFH) is given as “targets of CFH binding”.

B1: peptide b11 (peptide)
peptide: KEFDHNSNIRYRCR
B1: binds [5]; binds [6]; binds [7].

B2: Peptide A (peptide)
peptide: AIDKLKKCKSSNLIILEEHLKNKKEFDHNS
B2: binds [8]; binds [9]; binds [10].

B3: Peptide B (peptide)
peptide: IRYRCRGKEGWIHTVCINGRWDPEVNCS
B3: no binding (tested: 0 to 50 µg/ml) [5]; no binding (tested: 0 to 50 µg/ml) [6]; no binding (tested: 0 to 50 µg/ml) [7].
